Test results as given in patent publication US10830762.

Target: human CRBN (amino acids 40-442) in complex with full length human DDB1 (human) (UniProt Q96SW2)
Experiment: SPR (Biacore T200): GST-GSPT1 domains 2 and 3 captured by anti-GST antibody, CRBN-DDB1 as analyte, 10 uM Compound C; data not shown

Chain of human CRBN (amino acids 40-442) in complex with full length human DDB1 (human) (Q96SW2 40-442, chain 1 of 2): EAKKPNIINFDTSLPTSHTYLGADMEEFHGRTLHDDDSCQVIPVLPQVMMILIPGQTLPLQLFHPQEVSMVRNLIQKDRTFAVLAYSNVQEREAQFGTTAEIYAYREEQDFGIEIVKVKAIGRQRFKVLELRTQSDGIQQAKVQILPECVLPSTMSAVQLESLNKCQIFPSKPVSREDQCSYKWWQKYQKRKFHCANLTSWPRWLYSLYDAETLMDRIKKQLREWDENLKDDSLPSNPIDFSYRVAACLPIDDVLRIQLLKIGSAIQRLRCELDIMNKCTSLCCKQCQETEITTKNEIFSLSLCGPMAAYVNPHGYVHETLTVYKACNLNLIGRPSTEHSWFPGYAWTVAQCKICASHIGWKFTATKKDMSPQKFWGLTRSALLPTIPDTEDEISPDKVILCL
Chain of human CRBN (amino acids 40-442) in complex with full length human DDB1 (human) (Q16531 2-1140, chain 2 of 2, further chain): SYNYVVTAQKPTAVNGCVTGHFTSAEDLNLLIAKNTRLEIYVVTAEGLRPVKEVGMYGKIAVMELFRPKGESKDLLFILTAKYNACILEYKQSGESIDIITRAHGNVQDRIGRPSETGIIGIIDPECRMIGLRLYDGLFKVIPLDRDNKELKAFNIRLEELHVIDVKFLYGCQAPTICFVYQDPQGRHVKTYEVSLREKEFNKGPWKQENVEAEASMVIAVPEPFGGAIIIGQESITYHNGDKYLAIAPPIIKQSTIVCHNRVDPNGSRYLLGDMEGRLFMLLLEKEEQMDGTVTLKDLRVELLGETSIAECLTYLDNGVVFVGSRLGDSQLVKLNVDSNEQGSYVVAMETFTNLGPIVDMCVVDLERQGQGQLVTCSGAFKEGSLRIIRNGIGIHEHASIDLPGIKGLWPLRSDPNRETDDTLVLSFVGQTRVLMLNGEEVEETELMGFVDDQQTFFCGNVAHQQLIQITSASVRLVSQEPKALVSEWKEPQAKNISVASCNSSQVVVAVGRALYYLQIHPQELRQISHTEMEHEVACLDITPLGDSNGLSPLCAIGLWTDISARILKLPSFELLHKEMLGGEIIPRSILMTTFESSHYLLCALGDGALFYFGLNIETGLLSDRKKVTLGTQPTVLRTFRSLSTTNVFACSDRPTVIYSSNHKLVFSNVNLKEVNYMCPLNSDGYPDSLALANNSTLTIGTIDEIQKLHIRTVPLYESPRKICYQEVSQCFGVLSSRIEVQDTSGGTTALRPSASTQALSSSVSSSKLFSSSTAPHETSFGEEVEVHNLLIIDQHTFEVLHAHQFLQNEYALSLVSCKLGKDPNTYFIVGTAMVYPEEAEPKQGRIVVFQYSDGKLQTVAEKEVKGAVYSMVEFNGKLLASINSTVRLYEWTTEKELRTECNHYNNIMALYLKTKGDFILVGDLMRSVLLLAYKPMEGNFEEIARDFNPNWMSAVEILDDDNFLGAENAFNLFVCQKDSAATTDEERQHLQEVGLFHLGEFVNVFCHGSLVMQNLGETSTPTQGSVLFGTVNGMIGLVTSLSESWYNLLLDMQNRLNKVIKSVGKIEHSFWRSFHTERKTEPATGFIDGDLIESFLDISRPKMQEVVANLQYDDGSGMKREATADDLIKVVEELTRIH

- Kd: 400 nM
Substance: GST-GSPT1-domain 2 and 3 (from UniProt P15170 437-633)
